We go through 1 substance from PMC6943196.

The assay deals with Tolypothrix sp. PCC 7601 Orange Carotenoid Protein 1 (OCP1) (Tolypothrix sp. PCC 7601). Description: crystal structure.

Turning to “Tolypothrix sp. PCC 7601 Orange Carotenoid Protein 1 (OCP1) (natural protein)”, the stoichiometry N – broadly, the number of molecules, sites or subunits per partner or assembly – amounted to 2.
